According to patent publication US20250215104A1 (WALDEN BIOSCIENCES, published 2025):

Columns and labels:
[1] = molecular target: T1, human soluble urokinase plasminogen activator receptor (hsuPAR) (human, UniProt Q03405 23-303, limits assumed); test: BLI (Octet) off-rate screen of scFv clones
T1 construct: Target antigen of the off-rate screen; also called human suPAR; rhuPAR-His
T1 sequence (Q03405 23-303 limits assumed): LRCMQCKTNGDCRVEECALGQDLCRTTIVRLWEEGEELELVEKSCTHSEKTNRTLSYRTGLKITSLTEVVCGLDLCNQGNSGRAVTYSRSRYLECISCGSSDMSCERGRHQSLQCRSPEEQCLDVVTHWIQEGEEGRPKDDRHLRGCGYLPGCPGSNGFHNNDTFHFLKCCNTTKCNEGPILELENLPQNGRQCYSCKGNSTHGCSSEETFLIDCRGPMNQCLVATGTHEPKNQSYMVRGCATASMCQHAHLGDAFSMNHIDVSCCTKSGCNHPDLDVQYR

cynomolgus suPAR = molecular target: T2, cynomolgus suPAR (cynomolgus, UniProt Q9GK78 23-303, limits assumed); test: BLI (Octet) off-rate screen of scFv clones
T2 construct: Target antigen of the off-rate screen; also called cynomolgus uPAR; cynoPLAUR-His

[2] = molecular target: T3, human soluble urokinase plasminogen activator receptor (hsuPAR) (human, UniProt Q03405 23-303, limits assumed); test: off-rate screen of scFv clones (kdis), Octet BLI
T3 construct: also called human suPAR; rhuPAR-His
T3 sequence (Q03405 23-303 limits assumed): as above

[3] = molecular target: T4, cynomolgus soluble urokinase plasminogen activator receptor (cynomolgus suPAR) (cynomolgus, UniProt Q9GK78 23-303, limits assumed); test: off-rate screen of scFv clones (kdis), Octet BLI
T4 construct: also called cynomolgus uPAR; cynoPLAUR-His
T4 sequence (Q9GK78 23-303 limits assumed): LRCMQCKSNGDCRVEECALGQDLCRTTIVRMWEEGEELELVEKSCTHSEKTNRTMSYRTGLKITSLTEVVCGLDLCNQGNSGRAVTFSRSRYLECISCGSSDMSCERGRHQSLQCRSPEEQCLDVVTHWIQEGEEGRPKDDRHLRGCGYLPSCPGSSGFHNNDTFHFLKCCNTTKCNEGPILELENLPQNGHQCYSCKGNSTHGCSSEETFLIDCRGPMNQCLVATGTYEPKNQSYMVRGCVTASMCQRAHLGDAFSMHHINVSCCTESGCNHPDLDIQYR

T2 sequence (Q9GK78 23-303 limits assumed): as above

B1: suPAR_DB03_E06 (scFv, V domains shown)
VH: QVQLVQSGAEVKKPGASVKVSCKASGYTFTGQYVHWVRQAPGQGLEWMGWIDHENGNTIYDQKFQGRVTMTRDTSTSTVYMELSSLRSEDTAVYYCARGYDVDWFVYWGQGTLVTVSS
VL: DIQMTQSPSSLSASVGDRVTITCSARSSVSYMYWYQQKPGKAPKLLIYRTSNLASGVPSRFSGSGSGTDFTLTISSLQPEDFATYYCQQYHSYPPTFGGGTKVEIK
notes: screened as scFv
koff [1]: 0.0044 s⁻¹ | koff (cynomolgus suPAR): 7.36e-05 s⁻¹

B2: suPAR_DB04_D09 (scFv, V domains shown)
VH: QVQLVQSGAEVKKPGASVKVSCKASGYTFTAYYMHWVRQAPGQGLEWMGWIDHENGNTIYDQKFQGRVTMTRDTSTSTVYMELSSLRSEDTAVYYCARGYDVDWFVYWGQGTLVTVSS
VL: DIQMTQSPSSLSASVGDRVTITCSARSSVSYMYWYQQKPGKAPKLLIYRTSNLASGVPSRFSGSGSGTDFTLTISSLQPEDFATYYCQQYHSYPPTFGGGTKVEIK
notes: scFv clone from phage display
koff [2]: 0.00203 s⁻¹ | koff [3]: 0.000206 s⁻¹

B3: suPAR_DB03_E09 (scFv, V domains shown)
VH: QVQLVQSGAEVKKPGASVKVSCKASGFNIKDYYIHWVRQAPGQGLEWMGWIDPNSGGTNYAQKFQGRVTMTRDTSTSTVYMELSSLRSEDTAVYYCARGYDVDWFVYWGQGTLVTVSS
VL: DIQMTQSPSSLSASVGDRVTITCRARQSVSYMYWYQQKPGKAPKLLIYRTSNLASGVPSRFSGSGSGTDFTLTISSLQPEDFATYYCQQYHSYPPTFGGGTKVEIK
notes: screened as scFv
koff [1]: 0.00426 s⁻¹ | koff (cynomolgus suPAR): 0.000132 s⁻¹

B4: suPAR_DB04_D03 (scFv, V domains shown)
VH: QVQLVQSGAEVKKPGASVKVSCKASGYTFTSYYMHWVRQAPGQGLEWMGWIDPENGSTIYDQKFQGRVTMTRDTSTSTVYMELSSLRSEDTAVYYCARGYDVDWFVYWGQGTLVTVSS
VL: DIQMTQSPSSLSASVGDRVTITCRARQSVSYMYWYQQKPGKAPKLLIYRTSNLASGVPSRFSGSGSGTDFTLTISSLQPEDFATYYCQQYHSYPPTFGGGTKVEIK
notes: scFv clone from phage display
koff [2]: 0.00408 s⁻¹ | koff [3]: 0.000353 s⁻¹

B5: suPAR_DB04_C11 (scFv, V domains shown)
VH: QVQLVQSGAEVKKPGASVKVSCKASGYSFTDYYMHWVRQAPGQGLEWMGWIDPENGSTIYDQKFQGRVTMTRDTSTSTVYMELSSLRSEDTAVYYCARGYDVDWFVYWGQGTLVTVSS
VL: DIQMTQSPSSLSASVGDRVTITCSARSSVSYMYWYQQKPGKAPKLLIYRTSNLASGVPSRFSGSGSGTDFTLTISSLQPEDFATYYCQQYHSYPPTFGGGTKVEIK
notes: scFv clone from phage display
koff [2]: 0.00562 s⁻¹ | koff [3]: 0.000483 s⁻¹

B6: suPAR_DB04_C03 (scFv, V domains shown)
VH: QVQLVQSGAEVKKPGASVKVSCKASGYTFTSYYMHWVRQAPGQGLEWMGWIDPENGSTIYDQKFQGRVTMTRDTSTSTVYMELSSLRSEDTAVYYCASGYDVDWFVYWGQGTLVTVSS
VL: DIQMTQSPSSLSASVGDRVTITCSARSSVSYMYWYQQKPGKAPKLLIYRTSNLASGVPSRFSGSGSGTDFTLTISSLQPEDFATYYCQQYHSYPPTFGGGTKVEIK
notes: scFv clone from phage display
koff [2]: 0.00368 s⁻¹ | koff [3]: 0.000158 s⁻¹

B7: suPAR_DB04_C04 (scFv, V domains shown)
VH: QVQLVQSGAEVKKPGASVKVSCKASGYTFTGYYMHWVRQAPGQGLEWMGWIDHENGNTSYDQKFQGRVTMTRDTSTSTVYMELSSLRSEDTAVYYCARGYDVDWFVYWGQGTLVTVSS
VL: DIQMTQSPSSLSASVGDRVTITCSASQSVSYMYWYQQKPGKAPKLLIYRTSNLASGVPSRFSGSGSGTDFTLTISSLQPEDFATYYCQQYHSYPPTFGGGTKVEIK
notes: scFv clone from phage display
koff [2]: 0.00229 s⁻¹ | koff [3]: 0.000384 s⁻¹

B8: suPAR_DB04_C06 (scFv, V domains shown)
VH: QVQLVQSGAEVKKPGASVKVSCKASGYTFSAYYIHWVRQAPGQGLEWMGWIDHENGNTIYDQKFQGRVTMTRDTSTSTVYMELSSLRSEDTAVYYCARGNDVDWFVYWGQGTLVTVSS
VL: DIQMTQSPSSLSASVGDRVTITCSARQSVSYMYWYQQKPGKAPKLLIYRTSNLQSGVPSRFSGSGSGTDFTLTISSLQPEDFATYYCQQYHSYPPTFGGGTKVEIK
notes: scFv clone from phage display
koff [2]: 0.00412 s⁻¹ | koff [3]: 4.14e-05 s⁻¹

B9: suPAR_DB04_C12 (scFv, V domains shown)
VH: QVQLVQSGAEVKKPGASVKVSCKASGHTITSYYMHWVRQAPGQGLEWMGWIDHENGSTIYAQKFQGRVTMTRDTSTSTVYMELSSLRSEDTAVYYCARGYDVDWFVYWGQGTLVTVSS
VL: DIQMTQSPSSLSASVGDRVTITCRASSSVSYMYWYQQKPGKAPKLLIYRTSNLASGVPSRFSGSGSGTDFTLTISSLQPEDFATYYCQQYHSYPPTFGGGTKVEIK
notes: scFv clone from phage display
koff [2]: 0.000626 s⁻¹ | koff [3]: 0.000255 s⁻¹

B10: suPAR_DB04_D05 (scFv, V domains shown)
VH: QVQLVQSGAEVKKPGASVKVSCKASGYTFTTYYMHWVRQAPGQGLEWVGWIDPHSGGTNYAQKFQGRVTMTRDTSTSTVYMELSSLRSEDTAVYYCARGYDVDWFVYWGQGTLVTVSS
VL: DIQMTQSPSSLSASVGDRVTITCSARSSVSYMYWYQQKPGKAPKLLIYRTSNLASGVPSRFSGSGSGTDFTLTISSLQPEDFATYYCQQYHSYPPTFGGGTKVEIK
notes: scFv clone from phage display
koff [2]: 0.004 s⁻¹ | koff [3]: 5.44e-05 s⁻¹

B11: suPAR_DB04_D07 (scFv, V domains shown)
VH: QVQLVQSGAEVKKPGASVKVSCKASGYTFGSYYMHWVRQAPGQGLEWMGWIDHENGNTIYDQKFQGRVTMTRDTSTSTVYMELSSLRSEDTAVYYCARGYDVDWFVYWGQGTLVTVSS
VL: DIQMTQSPSSLSASVGDRVTITCRARQSVSYMYWYQQKPGKAPKLLIYRTSNLASGVPSRFSGSGSGTDFTLTISSLQPEDFATYYCQQYHSYPPTFGGGTKVEIK
notes: scFv clone from phage display
koff [2]: 0.00217 s⁻¹ | koff [3]: 0.000436 s⁻¹

B12: suPAR_DB04_C05 (scFv, V domains shown)
VH: QVQLVQSGAEVKKPGASVKVSCKASGHTLNSYYMHWVRQAPGQGLEWMGWIDHENGNTIYDQKFQGRVTMTRDTSTSTVYMELSSLRSEDTAVYYCARGYDVDWFVYWGQGTLVTVSS
VL: DIQMTQSPSSLSASVGDRVTITCSARSSVSYMYWYQQKPGKAPKLLIYRTSNLASGVPSRFSGSGSGTDFTLTISSLQPEDFATYYCQQYHSYPPTFGGGTKVEIK
notes: scFv clone from phage display
koff [2]: 0.00245 s⁻¹ | koff [3]: 0.000421 s⁻¹

B13: suPAR_DB04_C09 (scFv, V domains shown)
VH: QVQLVQSGAEVKKPGASVKVSCKASGYTFSTYYMQWVRQAPGQGLEWMGWIDPENGSTIYDQKFQGRVTMTRDTSTSTVYMELSSLRSEDTAVYYCARGYDVDWFVYWGQGTLVTVSS
VL: DIQMTQSPSSLSASVGDRVTITCSARSSVSYMYWYQQKPGKAPKLLIYRASNLASGVPSRFSGSGSGTDFTLTISSLQPEDFATYYCQQYHSYPPTFGGGTKVEIK
notes: scFv clone from phage display
koff [2]: 0.0013 s⁻¹ | koff [3]: 0.00154 s⁻¹

B14: suPAR_DB03_E08 (scFv, V domains shown)
VH: QVQLVQSGAEVKKPGASVKVSCKASGYTFTHYYMHWVRQAPGQGLEWMGWIDPEGGSTIYDQKFQGRVTMTRDTSTSTVYMELSSLRSEDTAVYYCARGYDVDWFVYWGQGTLVTVSS
VL: DIQMTQSPSSLSASVGDRVTITCRASSSVSYMYWYQQKPGKAPKLLIYRTSNLASGVPSRFSGSGSGTDFTLTISSLQPEDFATYYCQQYHSYPPTFGGGTKVEIK
notes: screened as scFv
koff [1]: 0.005 s⁻¹ | koff (cynomolgus suPAR): 0.00025 s⁻¹

B15: suPAR_DB04_D08 (scFv, V domains shown)
VH: QVQLVQSGAEVKKPGASVKVSCKASGYTLSGYYMHWVRQAPGQGLEWMGWIDPNSGATNDAPKFQGRVTMTRDTSTSTVYMELSSLRSEDTAVYYCARGYDVDWFVYWGQGTLVTVSS
VL: DIQMTQSPSSLSASVGDRVTITCSARSSVSYMYWYQQKPGKAPKLLIYRTSNLASGVPSRFSGSGSGTDFTLTISSLQPEDFATYYCQQYHSYPPTFGGGTKVEIK
notes: scFv clone from phage display
koff [2]: 0.00414 s⁻¹ | koff [3]: 0.000343 s⁻¹

B16: suPAR_DB04_E03 (scFv, V domains shown)
VH: QVQLVQSGAEVKKPGASVKVSCKASGYTFTNYYMHWVRQAPGQGLEWMGWIDHEGGSTIYAQKFQGRVTMTRDTSTSTVYMELSSLRSEDTAVYYCARGYDVDWFVYWGQGTLVTVSS
VL: DIQMTQSPSSLSASVGDRVTITCSARSSVSYMYWYQQKPGKAPKLLIYRTSNLASGVPSRFSGSGSGTDFTLTISSLQPEDFATYYCQQYHSYPPTFGGGTKVEIK
notes: scFv clone from phage display
koff [2]: 0.00116 s⁻¹ | koff [3]: 0.000224 s⁻¹

B17: suPAR_DB04_C07 (scFv, V domains shown)
VH: QVQLVQSGAEVKKPGASVKVSCKASGYTFTSYYMHWVRQAPGQGLEWMGWIDHSNGNTIYDQKFQGRVTMTRDTSTSTVYMELSSLRSEDTAVYYCARGDDVDWFVYWGQGTLVTVSS
VL: DIQMTQSPSSLSASVGDRVTITCSARSSVSYMYWYQQKPGKAPKLLIYRTSNLASGVPSRFSGSGSGTDFTLTISSLQPEDFATYYCQQYHSYPPTFGGGTKVEIK
notes: scFv clone from phage display
koff [2]: 0.0031 s⁻¹ | koff [3]: 0.000249 s⁻¹

B18: suPAR_DB04_D04 (scFv, V domains shown)
VH: QVQLVQSGAEVKKPGASVKVSCKASGYTIKDYYMHWVRQAPGQGLEWMGWIDHENGSTIYAQKFQGRVTMTRDTSTSTVYMELSSLRSEDTAVYYCARGYDVDWFVYWGQGTLVTVSS
VL: DIQMTQSPSSLSASVGDRVTITCSARSSVSYMYWYQQKPGKAPKLLIYRTSNLASGVPSRFSGSGSGTDFTLTISSLQPEDFATYYCQQYHSYPPTFGGGTKVEIK
notes: scFv clone from phage display
koff [2]: 0.00188 s⁻¹ | koff [3]: 0.000184 s⁻¹

B19: suPAR_DB04_D10 (scFv, V domains shown)
VH: QVQLVQSGAEVKKPGASVKVSCKASGYTFTSYYMHWVRQAPGQGLEWMGWIDPEGGNTSYDQKFQGRVTMTRDTSTSTVYMELSSLRSEDTAVYYCATGYDVDWFVYWGQGTLVTVSS
VL: DIQMTQSPSSLSASVGDRVTITCSARSSVSYMYWYQQKPGKAPKLLIYRTSNLASGVPSRFSGSGSGTDFTLTISSLQPEDFATYYCQQYHSYPPTFGGGTKVEIK
notes: scFv clone from phage display
koff [2]: 0.005 s⁻¹ | koff [3]: 0.000402 s⁻¹

B20: suPAR_DB04_C02 (scFv, V domains shown)
VH: QVQLVQSGAEVKKPGASVKVSCKASGNTFIGYYVHWVRQAPGQGLEWMGWIDHENGNTSYDQKFQGRVTMTRDTSTSTVYMELSSLRSEDTAVYYCARGNDVDWFVYWGQGTLVTVSS
VL: DIQMTQSPSSLSASVGDRVTITCSARSSVSYMYWYQQKPGKAPKLLIYRTSNLASGVPSRFSGSGSGTDFTLTISSLQPEDFATYYCQQYHSYPPTFGGGTKVEIK
notes: scFv clone from phage display
koff [2]: 0.00411 s⁻¹ | koff [3]: 0.000146 s⁻¹
